The results in this text go back to patent publication US20160333095A1 (Genmab, published 2016).

First the molecules themselves.
B1: IgG1-huCD3-H1L1 (antibody, V domains shown)
VH: EVKLVESGGGLVQPGGSLRLSCAASGFTFNTYAMNWVRQAPGKGLEWVARIRSKYNNYATYYADSVKDRFTISRDDSKSSLYLQMNNLKTEDTAMYYCVRHGNFGNSYVSWFAYWGQGTLVTVSS
VL: not shown
notes: IgG1,λ with wild-type Fc region
B2: IgG1-CD3-LFLEDA (antibody, V domains shown)
VH: EVKLLESGGGLVQPKGSLKLSCAASGFTFNTYAMNWVRQAPGKGLEWVARIRSKYNNYATYYADSVKDRFTISRDDSQSILYLQMNNLKTEDTAMYYCVRHGNFGNSYVSWFAYWGQGTLVTVSA
VL: QAVVTQESALTTSPGETVTLTCRSSTGAVTTSNYANWVQEKPDHLFTGLIGGTNKRAPGVPARFSGSLIGDKAALTITGAQTEDEAIYFCALWYSNLWVFGGGTKLTVL
notes: also called chimeric, parental CD3 antibody
B3: IgG1-huCD3-H3L3 (antibody, V domains shown)
VH: EVKLVESGGGLVKPGRSLRLSCAASGFTFNTYAMNWVRQAPGKGLEWVARIRSKYNNYATYYADSVKDRFTISRDDSKSILYLQMNSLKTEDTAMYYCVRHGNFGNSYVSWFAYWGQGTLVTVSS
VL: QAVVTQEPSFSVSPGGTVTLTCRSSTGAVTTSNYANWVQQTPGQAFRGLIGGTNKRAPGVPARFSGSILGNKAALTITGAQADDESDYYCALWYSNLWVFGGGTKLTVL
notes: as for B1
B4: IgG1-huCD3-H1L2 (antibody, V domains shown)
VH: EVKLVESGGGLVQPGGSLRLSCAASGFTFNTYAMNWVRQAPGKGLEWVARIRSKYNNYATYYADSVKDRFTISRDDSKSSLYLQMNNLKTEDTAMYYCVRHGNFGNSYVSWFAYWGQGTLVTVSS
VL: QAVVTQEPSFSVSPGGTVTLTCRSSTGAVTTSNYANWVQQTPGQAFRGLIGGTNKRAPGVPARFSGSILGNKAALTITGAQADDESIYFCALWYSNLWVFGGGTKLTVL
notes: as for B1
B5: IgG1-huCD3-H3L1-LFLEDA (antibody, V domains shown)
VH: EVKLVESGGGLVKPGRSLRLSCAASGFTFNTYAMNWVRQAPGKGLEWVARIRSKYNNYATYYADSVKDRFTISRDDSKSILYLQMNSLKTEDTAMYYCVRHGNFGNSYVSWFAYWGQGTLVTVSS
VL: not shown
B6: IgG1-huCD3-H4L1 (antibody, V domains shown)
VH: EVKLVESGGGLVKPGRSLRLSCAASGFTFNTYAMNWVRQAPGKGLEWVARIRSKYNNYATYYADSVKDRFTISRDDSKSILYLQMNSLKTEDTAMYYCVRHGNFGNSYVSWFAYWGQGTMVTVSS
VL: not shown
notes: as for B1
B7: IgG1-huCD3-H1L3 (antibody, V domains shown)
VH: EVKLVESGGGLVQPGGSLRLSCAASGFTFNTYAMNWVRQAPGKGLEWVARIRSKYNNYATYYADSVKDRFTISRDDSKSSLYLQMNNLKTEDTAMYYCVRHGNFGNSYVSWFAYWGQGTLVTVSS
VL: QAVVTQEPSFSVSPGGTVTLTCRSSTGAVTTSNYANWVQQTPGQAFRGLIGGTNKRAPGVPARFSGSILGNKAALTITGAQADDESDYYCALWYSNLWVFGGGTKLTVL
notes: as for B1
B8: IgG1-huCD3-H1L3-LFLEDA (antibody, V domains shown)
VH: EVKLVESGGGLVQPGGSLRLSCAASGFTFNTYAMNWVRQAPGKGLEWVARIRSKYNNYATYYADSVKDRFTISRDDSKSSLYLQMNNLKTEDTAMYYCVRHGNFGNSYVSWFAYWGQGTLVTVSS
VL: QAVVTQEPSFSVSPGGTVTLTCRSSTGAVTTSNYANWVQQTPGQAFRGLIGGTNKRAPGVPARFSGSILGNKAALTITGAQADDESDYYCALWYSNLWVFGGGTKLTVL
B9: IgG1-huCD3-H3L3-LFLEDA (antibody, V domains shown)
VH: EVKLVESGGGLVKPGRSLRLSCAASGFTFNTYAMNWVRQAPGKGLEWVARIRSKYNNYATYYADSVKDRFTISRDDSKSILYLQMNSLKTEDTAMYYCVRHGNFGNSYVSWFAYWGQGTLVTVSS
VL: QAVVTQEPSFSVSPGGTVTLTCRSSTGAVTTSNYANWVQQTPGQAFRGLIGGTNKRAPGVPARFSGSILGNKAALTITGAQADDESDYYCALWYSNLWVFGGGTKLTVL

For one experiment, the target named is T1, cynomolgus CD3 (cynomolgus monkey, UniProt Q95LI5 22-198).
T1 construct: also called CD3 on the cynomolgus T-cell line HSC-F; cynomolgus CD3ε (epsilon)
T1 sequence (Q95LI5 22-198): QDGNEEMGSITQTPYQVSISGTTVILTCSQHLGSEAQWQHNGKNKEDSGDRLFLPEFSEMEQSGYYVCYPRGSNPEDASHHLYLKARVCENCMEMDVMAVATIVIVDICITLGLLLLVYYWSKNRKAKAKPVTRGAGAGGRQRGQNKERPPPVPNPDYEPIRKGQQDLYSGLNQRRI
Briefly: flow cytometry on HSC-F cells, FIG. 2A. On the procedure: (§1) In addition to the non-activating mutations, LFLEDA, the antibody variants contained F405L or K409R mutations as described in Example 1.
(§2) Cells (1×10⁵ cells/well) were incubated in polystyrene 96-well round-bottom plates (Greiner bio-one 650101) with serial dilutions of antibody preparations (range 5 to 10,000 ng/mL in 3-fold dilutions) in 100 μL PBS/0.1% BSA/0.02% azide at 4° C. for 30 min.
(§3) After washing twice in PBS/0.1% BSA/0.02% azide, cells were incubated in 100 μL with secondary antibody at 4° C. for 30 min. As a secondary antibody, R-Phycoerythrin (PE)-conjugated goat-anti-human IgG F(ab′)2 (109-116-098, Jackson ImmunoResearch Laboratories, Inc., West Grove, Pa.) diluted 1/100 in PBS/0.1% BSA/0.02% azide, was used for all experiments. Next, cells were washed twice in PBS/0.1% BSA/0.02% azide, re-suspended in 150 μL PBS/0.1% BSA/0.02% azide and analyzed on a FACS Cantoll (BD Biosciences). Binding curves were analyzed using non-linear regression (sigmoidal dose-response with variable slope) using GraphPad Prism V 5.04 software (GraphPad Software, San Diego, Calif., USA).
On the technique in general: A flow cytometer gives signals particle by particle.
With B1, the binding result is “binds”.
As to B2, the binding result is reported as “binds”.
With B3, the binding result is “binds”.
The same measure, in the same setting: the same measure for B4: “binds”.
On the same count and under the same terms, the same measure for B5: “binds”.
On the same count and under the same terms, as for B6, the entry is “binds”; as for B7, “binds”.

For the next experiment, the target named is T1, cynomolgus CD3. Briefly: flow cytometry on HSC-F cells, FIG. 7A. The protocol:
as §1, §2, §3
As to B8, the binding result is reported as “binds”.
B9: the binding result is recorded as “binds”.
